From patent US20240228596A1 (VIB VZW, published 2024)
Numbering of substitutions follows the chain as printed.

B1: VHH3.89 (VHH)
VHH: QVQLQESGGGLVQPGGSLRLSCAASGFTLDYYAIGWFREVPGKEREGLSRIDSSDGSTYYADSVKGRFTISRDNTKNIVYLQMNNLKPEDTAVYYCATDPIIQGRNWYWTGWGQGTQVTVSS
B2: VHH4.2XAS58 (VHH)
VHH: QVQLQESGGGLVQSGGSLRLSCAGSGFPLEAFSIGWFRQAPGKEREFLAAITFNSDATYYADSVKGRFTISRDNAKNTAYLQMNSLKPDDTAVYSCAAGGNHYNPQYYHDYDKYDHWGQGTQVTVFS
B3: VHH3.83 (VHH)
VHH: QVQLQESGGGLVQPGDSLRLSCVLSGGVFTSYAMGWFRQAPGKEREFLAAITFNSDATYYADSVKGRFTISRDNAKNTAYLQMNSLKPNDTAVYSCAAGGNHYNPQYYHDYDKYDHWGQGTQVTVSS
B4: VHH4.2XAS43 (VHH)
VHH: B3 VHH with P14A, R19T, V23A, L24A, G27R, V28T, F29G, T30S, S31N, N89D
B5: VHH4.1XAS51 (VHH)
VHH: QVQLQESGGGLVQAGGSLRLSCTASTPTIKNYAMGWFRQAPGKEREFLAAITFNSDATYYADSVKGRFTISRDNAKNTAYLQMNSLKPDDTAVYSCAAGGNHYNPQYYHDYDKYDYWGQGTQVTVSS
B6: VHH4.2XAS31 (VHH)
VHH: QVQLQESGGGFVQAGGSLRLSCATSGHRFSDYAVAWFRQTPGKEREFLAAITFNSDATYYADSVKGRFTISRDNAKNTAYLQMNSLKPDDTAVYSCAAGGNHYNPQYYHDYDKYDHWGQGTQVTVSS
B7: VHH3.42 (VHH)
VHH: QVQLQESGGGLVQPGGSLRLSCAASGSAVSINDMGWYRQPPGKQRELVATITKTGSTNYADSVKGRFTISRDNAKNAVYLEMNSLKPEDTATYYCNAWLPYGMGPDYYGMELWGKGTQVTVSS
B8: VHH3.117 (VHH)
VHH: B7 VHH with S27K, N32S, V63A, K64Q, A74T, N76S, N83K, T92V
B9: VHH3.92 (VHH)
VHH: B7 VHH with S27K, N32S, S56N, V63A, K64Q, N76S, N83A, T92V

Tests used:
[1] = biological target: T1, RBD of SARS-COV-1 displayed on yeast cells (SARS-COV-1, UniProt P59594 318-517); experiment: flow cytometry, yeast-displayed RBD
[2] = biological target: T2, RBD of HKU3 sarbecovirus displayed on yeast cells (HKU3 sarbecovirus, UniProt Q3LZX1 322-504); experiment: flow cytometry, yeast-displayed RBD
SARS-COV-2 RBD-SD1 = SARS-COV-2 RBD-SD1 (SARS-COV-2, UniProt P0DTC2 319-591); experiment: periplasmic extract ELISA
[3] = biological target: T3, SARS-COV-2 Wuhan WT Spike_del18 on VSV-delG pseudotyped particles (SARS-COV-2, UniProt P0DTC2 14-1255); experiment: cell-based or functional assay
[4] = biological target: RBD of Rp3 sarbecovirus displayed on yeast cells (Rp3 sarbecovirus, UniProt Q3I5J5 322-503); experiment: flow cytometry, yeast-displayed RBD (data not shown)
[5] = biological target: T1, RBD of SARS-COV-1 displayed on yeast …; experiment: as above
[6] = biological target: T2, RBD of HKU3 sarbecovirus displayed on …; experiment: as above
[7] = biological target: SARS-COV-1 spike protein on VSV-delG pseudotyped particles (SARS-COV-1, UniProt P59594 14-1255); experiment: cell-based or functional assay
[8] = biological target: T3, SARS-COV-2 Wuhan WT Spike_del18 on …; experiment: cell-based or functional assay; remark: listed apart in the source
[9] = biological target: T3, SARS-COV-2 Wuhan WT Spike_del18 on …; experiment: cell-based or functional assay; remark: listed apart in the source

Binder	binding result (SARS-COV-2 RBD-SD1)	binding result [6]	IC50 Mean VSV-dG-spike SARS-COV-2 [8] [µg/mL]	neutralization IC50 [9] [nM]	further results
B1					binding result [1]: binds; binding result [2]: binds
B2	binds				
B3		binds			IC50 ug/ml, pseudoneutralization assay [3]: 0.262 µg/mL; binding result [4]: binds; binding result [5]: binds
B4	binds				
B5	binds				
B6	binds				
B7		binds	0.8	54.8	IC50 Mean VSV-dG-spike SARS-COV-1 [7]: 0.19 µg/mL
B8			0.2	13.7	IC50 Mean VSV-dG-spike SARS-COV-1 [7]: 0.016 µg/mL; IC50 ug/ml, pseudoneutralization assay [3]: 0.539 µg/mL; binding result [2]: binds
B9		binds	0.21	13.6	
